# Patent publication US20200239555A1 (STATEN BIOTECHNOLOGY B V, published 2020)
# Residue numbers refer to the chain shown, from its start.
# B1: 5E5WT human IgG1 (antibody, V domains shown)
# VH: QLQLVESGGGLVQPGGSLRLSCAASGFTFGTYSMRWVRQVPRKALEWVSSISTDGGGTAYRDSVKGRFTISRDNAKNTLYLQMNNLKPEDTAIYYCVIAGYSDWGQGTQVTVSS
# VL: ATMLTQSPGSLSVVPGESASISCKTSQGLVHSDGKTYFYWFLQKPGQSPQQLIYQVSNRASGVPDRFTGSGSGTDFTLKISGVKAEDAGVYYCAQGTYYPHTFGSGTRLEIK
# B2: 5E5VHWT_VL8 human IgG1 (antibody, V domains shown)
# VH: B1 VH
# VL: B1 VL with Q95H
# B3: 5E5VH5_VLWT human IgG1 (antibody, V domains shown)
# VH: B1 VH with S52H
# VL: B1 VL
# B4: 5E5VH12_VL8 human IgG1 (antibody, V domains shown)
# VH: B1 VH with A99H
# VL: B1 VL with Q95H
# notes: Tested as human IgG1
# B5: 5E5VH5_VL8 human IgG1 (antibody, V domains shown)
# VH: B1 VH with S52H
# VL: B1 VL with Q95H
# notes: Tested as human IgG1; the tested lot is not tied to them in words
# B6: 5E5VH5VH12_VLWT human IgG1 (antibody, V domains shown)
# VH: B1 VH with S52H, A99H
# VL: B1 VL
# B7: mAb13 (antibody, IgG1, V domains shown)
# VH: QLLESGGGLVQPGGSLRLSCAASGFTFSTYSMRWVRQVPGKGLEWVSSIHTEGGGTAYRDSVKGRFTISRDNSKNTLYLQMNSLRAEDTAVYYCVIAGYSDWGQGTLVTVSS
# VL: DIVMTQSPLSLPVTPGEPASISCKTSQGLVHSDGKTYFYWYLQKPGQSPQLLIYQVSNRASGVPDRFSGSGSGTDFTLKISRVEAEDVGVYYCAHGTYYPHTFGQGTRLEIK
# notes: Produced as full length IgG1 (kappa) in ExpiCHO-S cells; CDR graft into the closest human germline frameworks; also called humanized anti-ApoC3 antibody mAb13; variant 13
# B8: mAb14 (antibody, IgG1, V domains shown)
# VH: B7 VH with S28G
# VL: B7 VL
# notes: Produced as full length IgG1 (kappa) in ExpiCHO-S cells; CDR graft into the closest human germline frameworks; also called humanized anti-ApoC3 antibody mAb14; variant 14
# B9: 5E5WT scFv-Fc (scFv, part only; not given: Linker, domain order, Fc, V domains shown, not shown: another chain or arm of the molecule; a dimerising Fc or GST; small tags and cut ends)
# VH: B1 VH
# VL: B1 VL
# B10: 5E5VHWT_VL8 scFv-Fc (scFv, part only; not given: Linker, domain order, Fc, V domains shown, not shown: another chain or arm of the molecule; a dimerising Fc or GST; small tags and cut ends)
# VH: B1 VH
# VL: B1 VL with Q95H
# B11: 5E5VH12_VLWT scFv-Fc (scFv, part only; not given: Linker, domain order, Fc, V domains shown, not shown: another chain or arm of the molecule; a dimerising Fc or GST; small tags and cut ends)
# VH: B1 VH with A99H
# VL: B1 VL
# B12: 5E5VH5_VLWT scFv-Fc (scFv, part only; not given: Linker, domain order, Fc, V domains shown, not shown: another chain or arm of the molecule; a dimerising Fc or GST; small tags and cut ends)
# VH: B1 VH with S52H
# VL: B1 VL
# B13: 5E5VH5VH12_VL8 human IgG1 (antibody, V domains shown)
# VH: B1 VH with S52H, A99H
# VL: B1 VL with Q95H
# Molecular target: T1, native human ApoC3 (human, UniProt P02656 21-99)
# T1 construct: also called nhuApoC3; native huApoC3
# Assay: SPR, IgG1 over ApoC3 on CM5 chip, pH 5.5
# Description: (§1) Based on the results in Example 1, test scFv-Fc antibodies were generated as human IgG₁ antibodies. An SPR-based assay was employed, in which human ApoC3 protein was immobilized on a CM5 chip, and the binding kinetics of test antibodies to the coated chip were measured at both pH 7.4 and pH 5.5. Briefly, a solution of 50 μg/ml of native human ApoC3 in 10 mM acetate buffer at pH 4.5 was prepared and injected until the surface density reached approximately 500 RU. 60 μl of each test antibody was diluted in HBS-EP buffer (GE, cat. nr. BR-1008-26; 0.010 M HEPES, 0.150M NaCl, 3 mM EDTA, 0.05% (v/v) surfactant P20, pH 7.4), and was injected at a concentration as described in Table 9. The test antibodies were passed through the flow cells at a flow rate of 30 μl/min, followed by an off-rate wash at pH 7.4 or pH 5.5 for 5 min. The resulting sensorgrams were analyzed using the BIAevaluation 4.1 software applying the Langmuir 1:1 binding model to derive binding kinetics. Data was zero adjusted and the reference cell sensorgrams were subtracted.
# T1 sequence (P02656 21-99): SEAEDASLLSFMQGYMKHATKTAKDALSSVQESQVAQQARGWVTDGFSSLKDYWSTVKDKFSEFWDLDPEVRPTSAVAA
koff [s⁻¹],kon [M⁻¹ s⁻¹],Binder
1.7e-05,340000,B1
4.06e-05,731000,B2
0.000203,155000,B3
0.00165,188000,B4
0.00242,211000,B5
0.00316,156000,B6

# Molecular target: T2, biotinylated native human ApoC3 (human, UniProt P02656 21-99, biotinylated (site not stated))
# T2 construct: also called biotinylated human ApoC3
# Assay: SPR, IgG1 over biotinylated ApoC3 on SA chip, pH 5.5
# Description: (§2) Biotinylated native human ApoC3 was captured on a streptavidin coated SPR chip (GE Healthcare, cat. nr. BR100032) at pH 7.4, in accordance with the method provided by Biacore, by injection of 20 μl 10 μg/ml biotinylated native human ApoC3 reaching the surface density of approximately 500 RU. 60 μL of test antibody in 1-50 nM range diluted in HBS-EP buffer (GE, cat # BR-1008-26; 0.010 M HEPES, 0.150M NaCl, 3 mM EDTA, 0.05% (v/v) surfactant P20, pH 7.4) was injected and passed through the flow cells at a flow rate of 30 μl/min, followed by an off-rate wash at pH7.4 for 5 min. After the dissociation, the flow cell surfaces were regenerated by injecting 10 μl of 10 mM NaOH/1 M NaCl and 10 μl of 10 mM glycine at pH1.5. The assay was repeated at pH5.5 using the same general protocol, where the running and sample dilution buffer was replaced by a HBS-EP buffer supplemented with citrate buffer to 10 mM final concentration and pH adjusted to 5.5.
# (§3) The resulting sensorgrams were analyzed using the BIAevaluation 4.1 software using Langmuir 1:1 binding model to derive binding kinetics. Data was zero adjusted and the reference cell sensorgrams were subtracted. Sensorgrams were double referenced to no-analyte blank assay. Fitted parameters were considered not applicable if off-rate values were below the equipment's detection limit of kd: 1×10⁻⁶ 1/s.
# T2 sequence (P02656 21-99): as above
Ka [M⁻¹],koff [s⁻¹],kon [M⁻¹ s⁻¹],Kd [pM],Binder
1.8e+08,0.00267,479000,–,B7
4.7e+07,0.00788,370000,–,B8
–,1.7e-05,340000,50,B1
8.74e+07,0.00242,211000,–,B5

# Molecular target: T1, native human ApoC3
# Assay: SPR, ApoC3 over captured IgG1, pH 7.4
# Description: (§4) An inverted SPR assay was designed in which a test antibody was captured on an SPR chip, human ApoC3 protein was injected, and binding of ApoC3 to the antibody was measured. […] The immobilization was performed in accordance with the method provided by Biacore/GE using the NHS/EDC kit (Biacore AB, Cat.nr. BR-1000-50): after activation of the chip, a solution of 30 μg/ml of anti-human Fcγ antibody in 10 mM acetate buffer with pH of 5.0 was prepared and injected until the surface density reached approximately 10000 RU. The analytical cycle comprised the following steps:
# (§5) The resulting sensorgrams were analyzed using the BIAevaluation 4.1 software using Langmuir 1:1 binding model to derive binding kinetics. Data was zero adjusted, the reference cell sensorgrams were subtracted and the no analyte blank assay was used for double referencing the sensorgrams corresponding to the analyte injections. The dissociation and association phase sensorgrams were fitted separately for the 4 different concentration curves. Sensorgrams were excluded from the fitting if maximum RU values reached were below the detection limit of the equipment (<5 RU), Biacore 3000 (Biacore AB).
Ka [M⁻¹],koff [s⁻¹],kon [M⁻¹ s⁻¹],Binder
3.35e+06,0.0127,42700,B5

# Molecular target: T2, biotinylated native human ApoC3
# Assay: SPR, scFv-Fc over biotinylated ApoC3 on SA chip, pH 5.5
Kd [pM],koff [s⁻¹],kon [M⁻¹ s⁻¹],Binder
60,2.53e-05,393000,B9
–,0.00116,269000,B10
16000,0.00206,129000,B11
–,0.0016,147000,B12

# Molecular target: T1, native human ApoC3
# Assay: SPR, IgG1 over ApoC3 on CM5 chip, pH 7.4; pH 7.4; IgG1 over native ApoC3 on CM5 chip
# Description: as §1
koff [s⁻¹],kon [M⁻¹ s⁻¹],Binder
0.0028,125000,B13

# Molecular target: T2, biotinylated native human ApoC3
# Assay: SPR, IgG1 over biotinylated ApoC3 on SA chip, pH 5.5; pH 5.5
row,Ka [M⁻¹],Binder
1,2.01e+10,B1

# Molecular target: T2, biotinylated native human ApoC3
# Assay: SPR, scFv-Fc over biotinylated ApoC3 on SA chip
row,KD pH 5.5/KD pH 7.4,Binder
1,3,B9
2,7.4,B10
3,31.4,B11
4,18.5,B12

# Molecular target: T2, biotinylated native human ApoC3
# Assay: SPR, IgG1 over biotinylated ApoC3 on SA chip
# Description: as §2, §3
row,KD pH5.5/KD pH7.4,Binder
1,1.33,B7
2,7.2,B8
3,0.97,B1
4,11.7,B5

# Molecular target: T2, biotinylated native human ApoC3
# Assay: SPR, IgG1 over biotinylated ApoC3 on SA chip, pH 7.4; pH 7.4; native ApoC3 on CM5 chip
row,kon [M⁻¹ s⁻¹],Binder
1,350000,B1

# Molecular target: T1, native human ApoC3
# Assay: SPR, IgG1 over ApoC3 on CM5 chip, pH 7.4
# Description: as §1
koff [s⁻¹],kon [M⁻¹ s⁻¹],Binder
1.79e-05,350000,B1
2.84e-05,782000,B2
3.77e-05,178000,B3
0.000163,267000,B4
0.000173,177000,B5
0.000305,61600,B6

# Molecular target: T1, native human ApoC3
# Assay: SPR, ApoC3 over captured IgG1, pH 7.4; pH 7.4; ApoC3 600-50 nM over immobilized antibody
# Description: as §4, §5
Ka [M⁻¹],koff [s⁻¹],kon [M⁻¹ s⁻¹],Binder
998000,0.037,37000,B7
567000,0.0458,26000,B8

# Molecular target: T2, biotinylated native human ApoC3
# Assay: SPR, IgG1 over biotinylated ApoC3 on SA chip, pH 7.4
# Description: as §2, §3
Ka [M⁻¹],koff [s⁻¹],kon [M⁻¹ s⁻¹],Kd [pM],Binder
2.38e+08,0.000461,110000,–,B7
3.38e+08,0.000427,144000,–,B8
1.95e+10,1.79e-05,–,50,B1
1.03e+09,0.000173,177000,980,B5

# Molecular target: T2, biotinylated native human ApoC3
# Assay: SPR, scFv-Fc over biotinylated ApoC3 on SA chip, pH 7.4
Kd [pM],koff [s⁻¹],kon [M⁻¹ s⁻¹],Binder
20,1.75e-05,823000,B9
580,0.000221,381000,B10
510,0.000157,308000,B11
590,0.000105,178000,B12
